Partition coefficient data for one substance are collected here from PMC9918544.

The target in experiment [1] is FSFG_(52×12) Mutant 1. In words: partitioning into the condensed FG phase (confocal laser scanning microscopy); FG particles of unlabelled FG domain in assay buffer (50 mM Tris/HCl, 5 mM DTT, 150 mM NaCl) mixed with fluorescent probe: 6 μM mCherry, 3 μM EGFP, 1 μM NTR or 1.5 μM NTR pre-incubated with 1 μM cargo; partition coefficient = signal in the centre of the particle / buffer; 21 °C.

The target in experiment [2] is FSFG_(52×12) Mutant 2. The description is as above.

On to “NTF2 (Nuclear transport factor 2), coupled with Alexa488 (from UniProt P61970 1-127) (natural protein)”, for which the partition coefficient in experiment [1] and in experiment [2] was 2000 each time.
